{
  "source": "patent US9097721B2",
  "about": "“Compositions comprising engineered phosphothreonine affinity reagents, methods of making, and methods of use” (The Board of Trustees of the University of Illinois, priority 2012, dated 2015)",
  "molecules": {"B1": {"name": "3C-3S: FHA1 domain variant with three cysteines mutated to serine (C34S, C38S, C154S) (protein)", "chain": "MENITQPTQQSTQATQRFLIEKFSQEQIGENIVSRVISTTGQIPIRDLSADISQVLKEKRSIKKVWTFGRNPACDYHLGNISRLSNKHFQILLGEDGNLLLNDISTNGTWLNGQKVEKNSNQLLSQGDEITVGVGVESDILSLVIFINDKFKQSLEQNKVDRIRSNLKNT", "modifications": "left off: a dimerising Fc or GST; large carriers; small tags and cut ends"}, "B2": {"name": "4C-4S: FHA1 variant with all four cysteines mutated to serines (protein)", "chain": "B1 chain with C74S", "modifications": "left off: a dimerising Fc or GST; large carriers; small tags and cut ends", "notes": "FHA1 variant with all four cysteines mutated to serines"}, "B3": {"name": "G2: thermally stable FHA1 variant of D2, mutations T15A, L48F, N121Y (protein)", "chain": "MENITQPTQQSTQAAQRFLIEKFSQEQIGENIVFRVISTTGQIPIRDFSADISQVLKEKRSIKKVWTFGRNPACDYHLGNISRLSNKHFQILLGEDGNLLLNDISTNGTWLNGQKVEKNSYQLLSQGDEITVGVGVESDILSLVIFINDKFKQSLEQNKVDRIRSNLKNTHHHHHH"}, "B4": {"name": "A12: thermally stable FHA1 variant of D2, mutations C74S, G94D, E129V, N158I (protein)", "chain": "B3 chain with A15T, F48L, C74S, G94D, Y121N, E129V, N158I"}},
  "key": {"Rad9-pT peptide [1]": {"target": "T1, Rad9-pT peptide (Saccharomyces cerevisiae, UniProt P14737)", "T1 construct": "host or cells: chemical synthesis", "assay": "ELISA of GST fusions of FHA1 domains", "format": "binding, yeast", "settings": "expressed in bacterial cytoplasm as GST fusion", "experimental": "For production of FHA1-GST fusion protein, BL21 DE3 cells (10 mL; Stratagene) harboring the expression vector was grown overnight at 30° C. using the Overnight Express™ Autoinduction System 1 (Novagen). The next day, cells were lysed using BugBuster® 10× Protein Extraction Reagent (Novagen) following the manufacturer's instructions. Cell lysate (100 μL diluted 1:5 with PBST) was incubated with the biotinylated peptides as described above and detected using anti-GST antibody conjugated to HRP (diluted 1:10,000 with PBST; GE Healthcare)."}, "Rad9-pT peptide [2]": {"target": "T1, Rad9-pT peptide", "assay": "Phage ELISA of phage-displayed FHA1 domains", "format": "binding, yeast", "settings": "M13 protein III fusion, DsbA signal sequence", "experimental": "To amplify the phage particles displaying the recombinant FHA1 variants, TG1 bacterial cells (5 mL; Stratagene) harboring the phagemid DNA were infected at mid-log (OD600nm=0.5-0.6) with M13K07 helper phage (New England Biolabs) at a multiplicity of infection (MOI) of 20 for 1 h at 37° C. at 150 rpm. Infected cells were centrifuged, and the pellet was resuspended in fresh Luria Bertani medium (LB: 10 g Tryptone, 5 g Yeast extract, and 10 g NaCl per liter) supplemented with 50 μg/mL carbenicillin and 50 μg/ml kanamycin, and phage were amplified overnight at 30° C. at 250 rpm. All of the phage ELISA steps were performed at room temperature. Biotinylated peptides (100 μL, 5 μg/mL) were immobilized on Nunc MaxiSorp flat-bottom 96 well plates (Thermo Fisher Scientific) via NeutrAvidin™ Biotin binding protein (100 μL, 10 μg/mL; Thermo Fisher Scientific) and blocked with 2% skim milk in 1×PBS (200 μL per well). After washing with Phosphate Buffered Saline (PBS: 0.14 M Sodium Chloride, 0.003 M Potassium Chloride, 0.002 M Potassium Phosphate, and 0.01 M Sodium Phosphate), the wells were incubated with the phage supernatant (100 μL of phage diluted 1:2 with PBS containing 0.1% Tween 20 (PBST)) for 1 h and washed three times with PBST. The binding phage were detected using anti-M13 antibody conjugated to horse radish peroxidase (HRP) (GE Healthcare) diluted 1:5000 with PBST. After washing away the unbound antibody, the chromogenic substrate for HRP; 2,2′-Azinobis (3-ethylbenzothiazoline-6-Sulfonic Acid) diammonium salt (Thermo Fisher Scientific), supplemented with hydrogen peroxide was added (100 μL per well), and the absorbance of the green colored complex was measured at 405 nm on POLARstar OPTIMA microtiter plate reader (BMG Labtech)."}, "[3]": {"target": "T2, cognate pT peptide (Rad9-pT) (Saccharomyces cerevisiae, UniProt P14737)", "T2 construct": "host or cells: chemical synthesis", "assay": "FTS assay, Tm shift in the presence of the cognate pT peptide", "format": "binding, yeast", "experimental": "(§1) The FTS assay was performed on a MxPro-Mx3005P instrument (Stratagene) following the protocol described by Giuliani et al (Giuliani et al. (2008) Biochemistry 47, 13974-84). It is a real-time assay using the SYBR® Green experiment setting with dissociation curve. The default FRROX filter set was used with an excitation wavelength of 492 nm and emission wavelength of 610 nm. FHA1 domains diluted with PBS to 2× final concentration (i.e. 2 μM and 8 μM) were mixed with 10×SYPRO® Orange protein gel stain (Invitrogen; 5000× concentration in DMSO) to give a final dye concentration of 10×. Then, to the protein wells only, 10 μL of the dye+protein mixture was added along with 10 μL of 1×PBS buffer. In other wells, 10 μL of either the pT peptide or its non-phosphorylated form (diluted to 2× final concentration with PBS, i.e. 100 μM and 500 μM) was added to 10 μL of dye+protein mixture. The final reaction volume was 20 μL with final concentrations of 1 μM or 4 μM of FHA1 domains, 50 μM or 250 μM of pT and non-phosphorylated peptides and 5× final concentration of the SYPRO® Orange. The assay was performed in duplicate in 96 well white PCR plates (BIO-Rad) covered with optically clear Microseal® ‘B’ Film (Bio-Rad) and heated from 25° C. to 95° C. and the melting curve was obtained with fluorescence (R) values plotted on the Y-axis and increasing temperature (° C.) on the X-axis. The mid-point of the curve gives the melting temperature (Tm), which shifts to a higher temperature in the presence of the pT peptide.\n(§2) The Tm values of FHA1 variants were determined by FTS assay (Giuliani et al. (2008) Biochemistry 47, 13974-84). A representative Tm curve for the G2 variant at 1 μM concentration is shown (solid squares), alone and in the presence of the pT peptide (FIG. 11). […] The Tm values of the thermally stable variants (along with WT and D2 variant) at 1 μM and 4 μM concentration, along with the Tm shift in the presence of two different concentrations (50 μM and 250 μM) of the pT peptide, are listed in Table S3."}, "[4]": {"assay": "Fluorescence-based thermal shift (FTS) assay, melting temperature", "format": "physicochemical", "settings": "for thermal stability compared with the starting D2 domain: isolated after selection with library heated to 50° C.; for Tm (° C.): mid-point of melting curve", "experimental": "as §1\nTo evaluate the thermal stability of the D2 variant, phage particles displaying the D2 variant were heated at various temperatures (30° C., 37° C., 50° C., 60° C., 70° C., 80° C., and 95° C.) prior to incubation with the cognate pT peptide (Rad9-pT) and the non-phosphorylated form of the same peptide (Rad9-T). […] (FIG. 8). The D2 variant (purified six-his tagged protein) was mixed with SYPRO orange dye with or without the Rad9-pT-containing peptide and heated from 25° C. to 95° C. in a real-time PCR experiment known as the Fluorescence-based thermal shift (FTS) assay^36. In this assay, initially, the fluorescence of SYPRO orange dye is quenched in the aqueous environment of a folded protein, but as the protein starts to unfold upon heating, the dye interacts with the hydrophobic core of the protein and its fluorescence increases. Therefore, an increase in fluorescence of the dye is directly proportional to protein unfolding, until a temperature (referred to as Tm here) is reached at which the dye fluorescence decreases due to aggregation and precipitation of the protein. The melting temperature (Tm) of the D2 variant was determined by fluorescence-based thermal shift (FTS) assay to be approximately 5° C. lower than the Tm of the WT FHA1 domain. To improve the thermal stability of the D2 variant, affinity selection was carried out by heating the phage library displaying D2 variants at 50° C. prior to incubation with the pT peptide ligand to favor the isolation of variants that remained folded and functional above 50° C.\nas §2\nThe Tm (temperature at which 50% of the protein is unfolded) of the protein domain variants was determined by a fluorescence-based thermal shift assay (Giuliani et al. (2008) Biochemistry 47, 13974-84). The proteins were mixed with SYPRO orange dye, and heated from 25° C. to 95° C. on a real-time thermocycler. […]"}, "[5]": {"target": "T3, pT peptide (Rad 9-pT: SLEVpTEADATFYAKK) (Saccharomyces cerevisiae, UniProt P14737)", "T3 construct": "host or cells: chemical synthesis", "assay": "Isothermal titration calorimetry (ITC)", "format": "binding, yeast", "settings": "in solution by ITC; FHA1 domain 35 μM in cell", "experimental": "A fixed amount (10 μL) of the pT peptide (Rad 9-pT: SLEVpTEADATFYAKK (SEQ ID NO:9); 500 μM) was injected from the syringe into the sample cell containing the FHA1 domain (35 μM). […] Each measurement was repeated three times.\nThe affinity of the G2 variant and the WT FHA1 domain to the pT peptide (SLEVpTEADATFYAKK) (SEQ ID NO:9) was determined by ITC (FIG. 12). The sample cell contained the purified FHA1 domains (35 μM) and the injection syringe was filled with the pT peptide (350 μM). […] The FHA1 domains bound to the pT peptide with a stoichiometry of 1:1, and the ITC graph was fitted by the single site binding model."}, "[6]": {"system": "non-phosphorylated form of the same peptide", "assay": "FTS assay, Tm shift in the presence of the non-phosphorylated peptide", "format": "binding, yeast", "experimental": "as §1, with “The final reaction volume was 20 μL with final concentrations of 1 μM or 4 μM of FHA1 domains, 50 μM or 250 μM of pT and non-phosphorylated peptides and 5× final concentration of the SYPRO® Orange.” left out, “The mid-point of the curve gives the melting temperature (Tm), which shifts to a higher temperature in the presence of the pT peptide.” left out\nThe Tm values of FHA1 variants were determined by FTS assay (Giuliani et al. (2008) Biochemistry 47, 13974-84). […]"}, "[7]": {"settings": "250 μM pT peptide, protein 1 μM"}, "[8]": {"settings": "250 μM pT peptide, protein 4 μM"}},
  "note": "Numbering of substitutions follows the chain as printed. Names may count otherwise. “And” between values parts separate entries of the source, which are not always exact repeats. Identical values can stand only once. “Also recorded” adds a separate entry of the source.",
  "data": [
    {"molecule": "B1", "values": [
      {"measurement": "binding of GST fusion to Rad9-pT peptide", "setting": "Rad9-pT peptide [1]", "value": "bound specifically; also recorded: showed specific binding"},
      {"measurement": "binding to Rad9-pT peptide when phage-displayed", "setting": "Rad9-pT peptide [2]", "value": "did not bind; also recorded: remained non-functional"}
    ]},
    {"molecule": "B2", "values": [
      {"measurement": "binding of GST fusion to Rad9-pT peptide", "setting": "Rad9-pT peptide [1]", "value": "bound specifically; also recorded: showed specific binding"},
      {"measurement": "binding to Rad9-pT peptide when phage-displayed", "setting": "Rad9-pT peptide [2]", "value": "did not bind; also recorded: remained non-functional"}
    ]},
    {"molecule": "B3", "values": [
      {"measurement": "Tm shift (° C.) in the presence of pT peptide", "setting": "[3]; 50 μM pT peptide, protein 1 μM", "value": 1.2, "unit": "°C"},
      {"measurement": "Tm shift (° C.) in the presence of pT peptide", "setting": "[3]; 50 μM pT peptide, protein 4 μM", "value": 0.5, "unit": "°C"},
      {"measurement": "Tm shift (° C.) in the presence of pT peptide", "setting": "[3]; [7]", "value": 2.75, "unit": "°C"},
      {"measurement": "Tm shift (° C.) in the presence of pT peptide", "setting": "[3]; [8]", "value": 2.5, "unit": "°C"},
      {"measurement": "thermal stability compared with the starting D2 domain", "setting": "[4]", "value": "more thermally stable"},
      {"measurement": "Tm (° C.)", "setting": "[4]; protein concentration 1 μM", "value": 73.75, "unit": "°C"},
      {"measurement": "Tm (° C.)", "setting": "[4]; protein concentration 4 μM", "value": 74.9, "unit": "°C"},
      {"measurement": "Kd", "setting": "[5]", "value": "~890 nM and 890 nM"},
      {"measurement": "shift in the Tm", "setting": "[6]", "value": "No shift"}
    ]},
    {"molecule": "B4", "values": [
      {"measurement": "Tm shift (° C.) in the presence of pT peptide", "setting": "[3]; 50 μM pT peptide, protein 1 μM", "value": 1.25, "unit": "°C"},
      {"measurement": "Tm shift (° C.) in the presence of pT peptide", "setting": "[3]; 50 μM pT peptide, protein 4 μM", "value": 1, "unit": "°C"},
      {"measurement": "Tm shift (° C.) in the presence of pT peptide", "setting": "[3]; [7]", "value": 2, "unit": "°C"},
      {"measurement": "Tm shift (° C.) in the presence of pT peptide", "setting": "[3]; [8]", "value": 2.4, "unit": "°C"},
      {"measurement": "thermal stability compared with the starting D2 domain", "setting": "[4]", "value": "more thermally stable"},
      {"measurement": "Tm (° C.)", "setting": "[4]; protein concentration 1 μM", "value": 66, "unit": "°C"},
      {"measurement": "Tm (° C.)", "setting": "[4]; protein concentration 4 μM", "value": 64, "unit": "°C"}
    ]}
  ]
}
